From paper PMC10479434

Columns and labels:
α-synuclein (wild type) [1] = target: α-synuclein (wild type) (UniProt P37840)
α-synuclein (wild type) [2] = target: α-synuclein (wild type) (UniProt P37840); remark: listed apart in the source

Chain of HtrA1ΔNTD (residues 156–480) (Q92743 156-480, stated change not applied): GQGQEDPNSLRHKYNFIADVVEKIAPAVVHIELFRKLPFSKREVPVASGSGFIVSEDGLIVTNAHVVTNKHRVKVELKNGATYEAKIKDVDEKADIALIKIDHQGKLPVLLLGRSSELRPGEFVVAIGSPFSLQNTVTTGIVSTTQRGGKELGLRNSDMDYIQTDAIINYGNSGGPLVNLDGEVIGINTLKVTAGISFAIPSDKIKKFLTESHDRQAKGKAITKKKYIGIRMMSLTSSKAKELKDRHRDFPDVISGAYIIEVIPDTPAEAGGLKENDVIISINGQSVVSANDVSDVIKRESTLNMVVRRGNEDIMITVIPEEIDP

Which ThT fluorescence of α-syn (25 μM) fibrillized with HtrA1 (5 μM) for 48h, relative to the signal without HtrA1 (% of the ThT signal without HtrA1) (α-synuclein (wild type) [1]) does the source give for “HtrA1ΔNTD (residues 156–480) (from UniProt Q92743 156-480) (domain or fragment)” here?
Its ThT fluorescence of α-syn (25 μM) fibrillized with HtrA1 (5 μM) for 48h, relative to the signal without HtrA1 (% of the ThT signal without HtrA1) is 20.

And the sedimentation assay, α-syn (25 μM) with HtrA1 (5 μM), 24–72h: share of α-syn in the insoluble fraction (HtrA1 itself stays soluble with α-syn) (% of α-syn insoluble) (α-synuclein (wild type) [2])?
Its sedimentation assay, α-syn (25 μM) with HtrA1 (5 μM), 24–72h: share of α-syn in the insoluble fraction (HtrA1 itself stays soluble with α-syn) (% of α-syn insoluble) is under 10.
